# Target: acetylcholine receptor
# Test: SPR, receptor on CM5 chip, peptide 10 µM
row,Binder,Binding affinity (RU)
1,RKVRRR [6mer-1-69],142 RU
2,KKLLYR [6mer-1-70],139 RU
3,KRWFYK [6mer-1-71],121 RU
4,RKVQLK [6mer-1-72],139 RU
5,KKQQQR [6mer-1-73],142 RU
6,KKVRLR [6mer-1-74],142 RU
7,RRQYQK [6mer-1-75],139 RU
8,RRLQLK [6mer-1-76],126 RU
9,KKQLRR [6mer-1-77],149 RU
10,KKRVSK [6mer-1-78],145 RU
11,KRLFCK [6mer-1-79],137 RU
12,KRVQQR [6mer-1-80],133 RU
13,RRWQLR [6mer-1-81],148 RU
14,KKVLYR [6mer-1-82],123 RU
15,RRSFLR [6mer-1-83],146 RU
16,RRGQTK [6mer-1-84],142 RU
17,RKRQCK [6mer-1-85],121 RU
18,KKWRQK [6mer-1-86],142 RU
19,KKQVYK [6mer-1-87],139 RU
20,KRWICK [6mer-1-88],121 RU
21,RKQRCK [6mer-1-89],142 RU
22,KKGISK [6mer-1-90],125 RU
23,RKQQCK [6mer-1-91],131 RU
24,RRWRLK [6mer-1-92],153 RU
25,KRWIRR [6mer-1-93],136 RU
26,RKVQQK [6mer-1-94],142 RU
27,KKWQTK [6mer-1-95],142 RU

row,Binder,Binding affinity (RU)
1,KRGVRK [6mer-1-96],125 RU
2,KKVYLR [6mer-1-97],139 RU
3,KRLQCR [6mer-1-98],154 RU
4,RKVVYR [6mer-1-99],136 RU
5,RKWISK [6mer-1-100],146 RU
6,KRWLYR [6mer-1-101],142 RU
7,RRRYRR [6mer-1-102],127 RU
8,RKRICK [6mer-1-103],122 RU
9,KRGFSK [6mer-1-104],121 RU
10,KKSISK [6mer-1-105],141 RU
11,KRGQLK [6mer-1-106],149 RU
12,KKQRSR [6mer-1-107],131 RU
13,RRLLLR [6mer-1-108],139 RU
14,KKRYLR [6mer-1-109],148 RU
15,KRQLLK [6mer-1-110],121 RU
16,RKVICR [6mer-1-111],144 RU
17,KKWVCR [6mer-1-112],148 RU
18,KRGVQK [6mer-1-113],148 RU
19,RRQITK [6mer-1-114],153 RU
20,RRSLSR [6mer-1-115],133 RU
21,RKVRCK [6mer-1-116],139 RU
22,KRLFTR [6mer-1-117],142 RU
23,RKLQLR [6mer-1-118],127 RU
24,KRLQTR [6mer-1-119],133 RU
25,RRRYSR [6mer-1-120],124 RU
26,KRRYTK [6mer-1-121],148 RU

# Target: acetylcholine receptor
# Test: SPR, AchR immobilised on chip, peptide at 10 uM
row,Binder,Binding affinity (RU)
1,KGRRR [5mer-586],78 RU
2,KRYRR [5mer-287],68 RU
3,RVITR [5mer-587],66 RU
4,KLILK [5mer-288],73 RU
5,RSFTR [5mer-588],60 RU
6,RRQYR [5mer-289],87 RU
7,KGLCR [5mer-589],58 RU
8,RGYYR [5mer-290],57 RU
9,KQYTK [5mer-590],81 RU
10,RWFTR [5mer-291],72 RU
11,RVYTK [5mer-591],61 RU
12,KLVCK [5mer-292],59 RU
13,RWLCR [5mer-592],56 RU
14,RQYYR [5mer-293],83 RU
15,KQYLK [5mer-593],77 RU
16,KQYYK [5mer-294],50 RU
17,KQYSR [5mer-594],50 RU
18,RGRCR [5mer-295],52 RU
19,KWQQR [5mer-595],58 RU
20,KWISK [5mer-296],55 RU
21,KLQQR [5mer-596],56 RU
22,RSLRK [5mer-297],81 RU
23,KLVSR [5mer-597],68 RU
24,KSIYR [5mer-298],75 RU
25,RVRSK [5mer-598],84 RU
